A short description of the data set: label from the status in PepcDB records.
On to “MKIFVDGDGSPVKETVIEVAVEKALDVVIVTSVDHYSLKDYPENVSFVYVDKGADAADFKIVQLIKKGDLLITQDYGLASLVLPKGVLVLHQLGYQYTKENIDGLLEQRYFSGQIRRKGGRTKGPKPFTDQDRTTFKQALIELVKRSLLEHHHHHH”, for which the protein production result was “failed”.
For “MKIGVDAGGTLIKIVQEKNGERTYSTRLTTEIEEVIQWLNQQDCNNINLTGGQAAMINEQLNCESRVFVEFDAAAKGLEILLEEQGHFLDDYIFTNVGTGTSLHFSNGKAQKRVGGIGTGGGMIQGLGYLLTGISNYKQLTDTAQNGNRDIIDLKVKHIYKDSEPPISGDLTAANFGNVLHHLDESFTDADKLASVIAVVGEVITTMSITVAREHNTKNVAYIGSSFHNNDLLKDVVKDYTVLRGCEPYYIEHGAFSGALGSIHLLEHHHHHH” the value was “failed”; for “MKIIFSASPANRAAAYALRQAVFVEERGISADVEFDVKDTDQCEYAVLYLQPDLPITTLRLEPQADHVMRFGRVCTRKAYRGHGWGRQLLTAAEEWATQRGFTHGEIHGELTAQRFYELCGYRVTAGPYDEDGAPVVIMHKQ”, “failed”; for “MKIIFSASPANRAAAYALRQAVFVEERGISADVEFDVKDTDQCEYAVLYLQPDLPITTLRLEPQADHVMRFGRVCTRKAYRGHGWGRQLLTAAEEWATQRGFTHGEIHGELTAQRFYELCGYRVTAGPYDEDGAPVVIMHKQLL”, “not failed”.
For “MKIIRNYLYNASYQVLILLTPLITVPYVARVLGPTGVGVYSYTNSIITYFVLIGTLGITVYGNQQIAFHRDDIIERSRTFWEIELLQAVNVGITFLGFGIFLILDHRYQLFMVFQSCQLLAGAFDVSWFFMGIEDFKKTVFRNTLVKIATLGAIFIFVRTQSDLGLYILILALSQLVGNFTLWPYLKTRLVRIKFKDLKIWHHYVPALMLFVPQAANLVYQQVNKTMLGNLDTVNSVAYFDYADKLIKTVLAVVTATGIVMLPHMANLHAKGKNETIKRYLYKSFEFVSMIALPLGFGIAGIATTLAPIYFGQDFSISGKLLIIEAPVILLIGWSNVIGQQYMMPTEQISKYTKSVIIGAIVNVILNVPLIMYLGAVGAPIATVAAELSVTLYQLFVVRKQIQINLLFSDFWKYLFSSTVMFIVVYGLNVSMPMSIINLIVQIVEGMIIYLGMLLVLQPKLVVEGKSLLLGKLHK” the value was “failed”; for “MKIKHWDRWLASLKDDDYLKNIEAIKLYLAVMSIYEPDLLDEYMIDDDFHPMISRLKNVTLDVTSARFKELYITESKMNYARDELDGAMIISKTLTKSDIVGNVALPKAQVMSVLTRMNGVTDEGLDNGFEVQVHDIMEDDLYTVTLKRIDDMKYYFGTGWSTMKHSLDLVEGDVQKLYWDQFENKFIVLNFQHKTMGIMIPV”, “failed”; for “MKIKILAVLAVVTVIVVSMFMREKREDPSSLVMMNVEALATGEGTSPAICVGTGSVVCPNDGSKVLYYR”, “failed”.
For “MKILIDGDACPKAVLQICLKKGRQYGIPVWTVASFNHEIASDHHIVVGNAPQETDLKVVNLSEAGDIIVTQDIGLAAMVLGKGARALSPTGKEYRPESIANLLEERELKAKYRRSLEHHHHHH” the value was “not failed”; for “MKILLIGGSGNIGRAIAAELSGRHEIIAAGRHHGDVRVDIEDEQSIAAMYRQLPRLDAVAVATGGRNGHVGPLAEMNAERYRVGLDAKLMGQVNLVLRGLDKVADGGSFTLVGGAWQPQAIVPLLSNVYMANAALEGFVNAAAVELPRRLRINLVSPLLLAESEAEYGPLFRGVPLVEARQVARAYSLSIEGAQTGQTYRLGRLDLEHHHHHH”, “not failed”; for “MKILTQSLPNSSAAYLQGYLRENTDSSVTYPTVIIVPGGSYTHIPERQAEDLALAWVARGYQAFFLRYSFISEKTPLLPNPVIELAQSVAAIHAHATTWHVDLRRLAVAGFSVGGHITALFNDWWSEADFNQQAHTTPEQLKVQAVILGYPVISPDLGFPTDAATLATWSTTPKKIAADQHVTAANAPTFIWVTANDPLVPVQNALAYAQASLTHGVDTELHVFHNGPHGLALANSVTAWKPGTDLPHVAHWLDLATEWLQDLKLEHHHHHH”, “not failed”.
Take “MKILVVSGFLGAGKTTFIRTLAERTKKDFAVMENEYGAVNVDGDLLEQTNDLNIWELTEGCICCSMQNDFATSILTIANTVDPEYLIVEPTGVGMLSKIIENIQKIEYERITLLEPLTILDGTMYDRCMFEFSEICEDQIQSAGRILVSKMEYAAENERCSLKQKLIALNPEAEICVSHYTEQGDDWWASLLTSYLDKEIPMKEERELDLENLGLTEASLQSEQELILFLQGVVSGVFGDICRAKGYLPAGNGWLRFDVTDRTYSVTGIDTMPEAKAIFIGRQLKRNWLREVLQKELYVEVSKRAIRPMRKRSEVLEHHHHHH”: the protein production result is recorded as “failed”.
For “MKIMGFYSQVILPRLLDWSLSDPTLATYRQELLTDVTGEVLEIGFGTGLNLAYYPSHIHKITTVDVNPGMNTIAQKRIDDSGIKVQQLLLSGENLPMADNTFDSVVSTWTLCSIANVEQALQEVYRVLKPGGKFFFLEHGLSNKPNVQVWQNRLTPIQKVLADGCHLNRNIQQLVEQSFDHVELKRFTPENFPDLMAHFYKGCATKKSILEHHHHHH” the value was “not failed”.
For “MKIPIILTLMLFSLGFIFGFISINNLSKINDKDLSNYIPNIQFNFPSILTNNLKVIFLMLAGSITFGLSTFINLIFNGFNVGVLIGSISLTNEPLKLITALILPHGIFEISAMLISAVAGFKIPYKVTLYLLDKKEKPLTEEDIKDFLKLSLISIILIVIAAFIEVYITPKIATYLLT” the value was “failed”.
For “MKIQCDVCEKAPATLICCADEAALCAKCDVEVHAANKLASKHQRLFLDSLSTKFPPCDICLEKAAFIFCVEDRALLCRDCDEATHAPNTRSANHQRFLATGIRVALSSTSCNQEVEKNHFDPSNQQSLSKPPTQQPAAPSPLWATDEFFSYSDLDCSNKKEQLDLGELDWLAEMGLFGDQPDQEALPVAEVPELSFSHLAHAHSYNRPMKSNVPNKKQRLEYRYDDEEEHFLVPDLG” the value was “not failed”; for “MKIRNDGPALAGWNVAWEMPDGQEITNSWNGRFVQTGAHVDVGNLDWNKDIPAGSNIEFGFNGSHTGRNRTPASLSVNGVKCTMAVAAPPPSPRPAACEATYQISDQWNTGFTANVRIRNDGDPLAGWKVVWDMPDGQRVTNSWNGRFTQSGSHVEVGHLDWNRDIATGSNIEFGFNGSHAGANRAPSSLSLNGVACALVTVAPSPTPAPTATPSPIPTPTPSPAPTASPSPAPTPTPAPTSSPSPTPAPTGPCQADYQVTAQWNDGFTANVKVRNNGTALDGWTVAWTMPSGQTVTGMWNGQYVQTGPQVAVTPADWNRQIASGASIEFGFNGSHSGSNAVPGVLTLNGAACATTTGGGTPTPTPVPVAPGAPAGLSATVADNAVVNLVWTAADAFAQGFRIERRTAAGVDWALVAETAAGVPSFGDGTVAMGNDYEYRVYAFNAVGNSPPATASASLPTLLKYGESQYQKQGCASCHGKDGKGGFTNKPLVHFTADQLATLTEIIRVRMPPSKPANCVSNCAAGTAKYIIEVLAAAASGGGGGGGNACAGSPPPGGRALRLLTRQEYQNTVNDLLGLSENLVHLLPEENRVDGFDNNVATNLVTSIRLEAFLTQAEALAAKAVQQNWNALLPCTQQDAACARRFVEAFGKRAYRRPLTPEEADAYAALFGQGSFREGVEATITHMLVSPNFLYRSELGEVQADGTYKLTPYETASALSYLFLGSLPDGELVSAADQNLLDTPDQRIAHASRLLSLPRSRNRVGHFVGQWLLGTSPYTLPEKDQAVYPRYDAAVRSAMSEELIGFFDHVAFESTQSFPELFTANYVVVDDTLADYYGLGRPGGSGFAPVTVSDGTRTGILTLGAVLSRYANSNESHPFKRGGFLYKRLLCRDLPLPANAGFIQAPQPDPNATTRQRFEFHSKSNTSCYGCHQYLDGPGFGFENYDGAGIFRASENGQAIDASGVLRGLETFTPTEELSFTDLPDLSRKIAASPTAAQCAARQYYRFATGRREASSDSCALDSFLQTYSANGHNLQTMLLGIVNAPGFTVRRADQ”, “failed”.

The values above are taken from a protein production outcome set (Wang et al. 2014).
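Also: failed if final PepcDB status was selected cloned or expressed and not failed if soluble or beyond.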
